The sequences below were run on MS2 coat protein (assay: apparent KD of MS2 coat protein; higher = weaker reporter binding). Settings: Eterna round: R107; input ligand: arginine 13.2 mM.
Outline: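 Titrations with SNAP-549-labelled MS2 coat protein ran in twofold steps from 0.7 or 1.5 nM to 3 µM, each step taking 0.8–1.5 h at the start and 10–20 min toward the end. The targets were designed RNA switches transcribed on-chip from Illumina sequencing clusters, held in 100 mM Tris-HCl pH 7.5, 80 mM KCl, 4 mM MgCl2, without or with constant ligand. Apparent KD was taken per design as the median of normalised cluster binding-curve fits.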

Sequence | apparent KD of MS2 coat protein
CACGAAAGAUCGGCCGCCACUCAUGUAGCUUACAUGAGGAUCACCCAUGUAUUUUCUUUCUUUUAGAGGACCGGGAUCGAGCGUG [#02 Same State - Tryptophan B] | 33.6 nM

Same assay, conditions: Eterna round: R107; input ligand: none

Sequence | apparent KD of MS2 coat protein
AUAACAUGAGGAUCACCCAUGUAAGCUGAAGGAGCGCUGGAAACAGCAGGUAGGUCGCAGCAUGUUUCCAAUCCUCAUGGAAACA [(M1)-(M2)-(Arg1)-(Arg2)-(A)'-(M)'-(A)''_Design9] | 152 nM
UAUCGGAACUGAAGGAGCGAGAUGACAAACAUGAGGAUCACCCAUGUUAUGGGUUGUUAAUCUCAGGUAGGUCGCAGUGGUAGCA [#27 Same State - Arginine B] | 151 nM
GCUGCCAUACGAAGGAGCGCUGGUGUAGUGCGGCGAACAUGAGGAUCACCCAUGUGGCAGCAGCAGGUAGGUCGCGUAUGGCAGC [EAB #14] | 11.2 nM
UGUGUCGUCUGAAGGAGCGGCCCUUGAUCCUCGUGAGACAUGAGGAUCACCCAUGUCUCGGGCCAGGUAGGUCGCAGGCGGCACA [#25 Exclusion - Arginine B] | 11.9 nM
UUGACAUGAGGAUCACCCAUGUUAGCGGAAGGAGCGCGGUAGUACGCAGGUAGGUCGCCGAGAACAGUGAUAGUUGUUCUCAUGU [X-ArgiA-ms2@4-1] | 76.6 nM
ACAUUUAACUGAAGGAGCGUGAUAUUUACAUGAGGAUCACCCAUGUCUUUCAUGAAUAAUUCACAGGUAGGUCGCAGACUAAUGA [JR_ExcArginiB_Sub007] | 116 nM
GCACAAGAUGGAAGGAGCGCUGGGAAAGGUCACAUGAGGAUCACCCAUGUUCUCCUUGCCGAGCAGGUAGGUCGCCAUCUUGUGC [SSAB NP+V+V2 #2] | 37.8 nM
GGAGGUACCCGAAGGAGCGACAUGAGGAUCACCCAUGUCUCCCGUUAUGGGAGUUCUUUAGGUCAGGUAGGUCGCGGGUACCUCC [#1 Exclusion - Arginine B Attempt #2 (Inspired by Omei)] | 97.7 nM
GGCCUGUGGUGCGAUACCAGCUUGAGUGUACUGGCCAGGUACAUGAGGAUCACCCAUGUAAGCCCUUGGCAGCGCGUCAGAGGCC [#1 Exclusion - Theophylline B Attempt #19 (HarryS)] | 8.82 nM
ACUUGAUACUGAAGGAGCGUCGGAUAAACUCGCACAUGAGGAUCACCCAUGUAUAUGAAUCGACAGGUAGGUCGCAGUAUCGAGU [Arg B SS t6] | 13.6 nM
AUCCACAGCCGAAGGAGCGCUAGAAGAUGACAUGAGGAUCACCCAUGUGUGUGAUGUGGCUAGCAGGUAGGUCGCGGAGUGGAUU [Exclusion - Arginine B (Freestyle 12)] | 24.3 nM
GGGCCCGGGCGCGAGCCCGGGCCCAUUGAUACCAGUGAAUAUAUACGCCCUUGGCAGCGAAUCCUAACAUGAGGAUCACCCAUGU [5.B] | 50.2 nM
AGCGUUCAGCUUAUACUGGACAAUGGGUGACGAGGACCGGUACGGCCGCCACUCGGGCGCCCGGUUACAUGAGGAUCACCCAUGU [Vedizaus] | 195 nM
GAAUUUAUUUGAAGGAGCGUCGAAAAUGGGUAAACAUGAGGAUCACCCAUGUAAAGGGAACGACAGGUAGGUCGCAAAUGGAUUC [AstromonsSSArgB#27] | 206 nM
UAUCCACAUGAGGAUCACCCAUGUAUGGAAGGAGCGGUGAAUGAACCAGGUAGGUCGCCAUGGUGAGGAUCAUCUAUGGAUUCGU [Exclusion - Arginine A (Freestyle 9)] | 56.5 nM
AAAUAUUACGGAAGGAGCGUCUCAUAUAUGAAACAUGAGGAUCACCCAUGUGAUAAUGAACGACAGGUAGGUCGCCGAUAAUUGA [JR_AAArginiB_Sub029] | 16 nM
ACCUGUACGAAAAGUGCAGGACACGGAAUACGAGGACCGGUACGGCCGCCACUCGGAAACCUGAGGAUCACCCUGGUAAACCGUG [TrypAS 12 #AlternativeMS2 #Zipper #StaticStem] | 25.2 nM

Same assay, conditions: Eterna round: R107; input ligand: theophylline 20 uM

Sequence | apparent KD of MS2 coat protein
ACAUGAAGAACAGCGGUGGGCGCGCUCGAUACCAGUACUUUGAUAUACCCUUGGCAGCGACAUGAGGAUCACCCAUGUGAGAUGA [XTheo A #2] | 23.9 nM
UUUUUUAUUAUGGCGUAUCGGAAAACCGAUACCAGUACAGAAAUGUACCCUUGGCAGCGGCGUUUUACAUGAGGAUCACCCAUGU [Ex Theophylline A 5] | 18.9 nM
CUAAAUAUAACGGCCGCCACUUACUCAUGAGGUAACAACAUGAGGAUCACCCAUGUUUGAGGAUCAAGGACCGGGUUAUAUUUAG [AstrosSSTry#22] | 38.1 nM
AUAACAUGAGGAUCACCCAUGUAAGCUGAAGGAGCGCUGGAAACAGCAGGUAGGUCGCAGCAUGUUUCCAAUCCUCAUGGAAACA [(M1)-(M2)-(Arg1)-(Arg2)-(A)'-(M)'-(A)''_Design9] | 159 nM
UAUCGGAACUGAAGGAGCGAGAUGACAAACAUGAGGAUCACCCAUGUUAUGGGUUGUUAAUCUCAGGUAGGUCGCAGUGGUAGCA [#27 Same State - Arginine B] | 138 nM
CACGAAAGAUCGGCCGCCACUAUUUGAUGUGUUCUUUCACAUGAGGAUCACCCAUGUUCUUAUUAUAGGACCGGGAUUGAGCGUG [ETB #3] | 141 nM
GGUUCCUCAACGGCCGCCACUUACUGGAUUAGUGGACCUACUUGCAACAUGAGGAUCACCCAUGUAAGGACCGGGUUGCUCCCAA [theeternabot_exclusion_MS2_Trp_B_34] | 90.1 nM
UAUUUGGUGCGCGAGCGUUGGAUAAUUGAUACCAGUGAAGAAGAGCGCCCUUGGCAGCGAAUCCUAACAUGAGGAUCACCCAUGU [5.S] | 63.2 nM
AUACCUAAUGUUACGUUUUCCUUUUCAGAUACCAGACUUUACGUUGUCCCUUGGCAGCUGUAUUACAUGAGGAUCACCCAUGUUG [JR_SSTheophyA_Sub008] | 26.7 nM
GCUGCCAUACGAAGGAGCGCUGGUGUAGUGCGGCGAACAUGAGGAUCACCCAUGUGGCAGCAGCAGGUAGGUCGCGUAUGGCAGC [EAB #14] | 14.6 nM
UGUGUCGUCUGAAGGAGCGGCCCUUGAUCCUCGUGAGACAUGAGGAUCACCCAUGUCUCGGGCCAGGUAGGUCGCAGGCGGCACA [#25 Exclusion - Arginine B] | 17.2 nM
CCUAUGCAGUCGGCCGCCACUGAACAUGAGGAUCACCCAUGUAUAUAAAGAUCCUGAUAUAAUAACAGGACCGGGACUGUAUAGG [Ex Tryptophan B 10] | 73.4 nM
UUGACAUGAGGAUCACCCAUGUUAGCGGAAGGAGCGCGGUAGUACGCAGGUAGGUCGCCGAGAACAGUGAUAGUUGUUCUCAUGU [X-ArgiA-ms2@4-1] | 85 nM
UUUGAGAUAACAGAUACCAGCGUGUUAUAAAACAUGAGGAUCACCCAUGUAGUGAUCAAGCGCCCUUGGCAGCUGGUAUUUUAGG [7.G] | 186 nM
ACAUUUAACUGAAGGAGCGUGAUAUUUACAUGAGGAUCACCCAUGUCUUUCAUGAAUAAUUCACAGGUAGGUCGCAGACUAAUGA [JR_ExcArginiB_Sub007] | 159 nM
CGGAGUAUGACGGCCGCCACUUGCCGGGCGCAGCUGGCUGCUUGACAUGAGGAUCACCCAUGUCCAAGGACCGGGUCAUUCCUCG [theeternabot_sameState_MS2_Trp_B_37] | 145 nM
GCACAAGAUGGAAGGAGCGCUGGGAAAGGUCACAUGAGGAUCACCCAUGUUCUCCUUGCCGAGCAGGUAGGUCGCCAUCUUGUGC [SSAB NP+V+V2 #2] | 50 nM
GGAGGUACCCGAAGGAGCGACAUGAGGAUCACCCAUGUCUCCCGUUAUGGGAGUUCUUUAGGUCAGGUAGGUCGCGGGUACCUCC [#1 Exclusion - Arginine B Attempt #2 (Inspired by Omei)] | 114 nM

— the supplement of paper PMC9170038
